This sample holds only a part of the variants without activity.
What was measured:
biotinyl-Phe-oxazolone = experiment: self-aminoacylation, catalytic enhancement (BFO) (fold over background); higher = more active; k-Seq, kA / k0A0; sequences stand for … in GGGAAUGGAUCCACAUCUACGAAUUC…UUCACUGCAGACUUGACGAAGCUG
Summary of the method: (§1)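 Catalytic enhancement equals the median kA over the uncatalyzed rate, the latter read from the low-activity peak of a bimodal Gaussian fit. Values of kA came from fitting each sequence's fraction reacted to a pseudo-first-order model, with 1000 bootstraps. Reacted RNA was captured with streptavidin and quantified by triplicate qPCR and Illumina sequencing after 90 minutes at room temperature with 2–1250 μM biotinyl-aminoacyl-oxazolone and 0.43 μM mutagenized RNA pools bearing a 21-nt variable region.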

biotinyl-Ile-oxazolone = experiment: self-aminoacylation, catalytic enhancement (BIO) (fold over background); higher = more active; k-Seq, kA / k0A0; sequences stand for … in GGGAAUGGAUCCACAUCUACGAAUUC…UUCACUGCAGACUUGACGAAGCUG
Summary of the method: as §1

biotinyl-Met-oxazolone = experiment: self-aminoacylation, catalytic enhancement (BMO) (fold over background); higher = more active; k-Seq, kA / k0A0; sequences stand for … in GGGAAUGGAUCCACAUCUACGAAUUC…UUCACUGCAGACUUGACGAAGCUG
Summary of the method: as §1

biotinyl-Val-oxazolone = experiment: self-aminoacylation, catalytic enhancement (BVO) (fold over background); higher = more active; k-Seq, kA / k0A0; sequences stand for … in GGGAAUGGAUCCACAUCUACGAAUUC…UUCACUGCAGACUUGACGAAGCUG
Summary of the method: as §1

biotinyl-Leu-oxazolone = experiment: self-aminoacylation, catalytic enhancement (BLO) (fold over background); higher = more active; k-Seq, kA / k0A0; sequences stand for … in GGGAAUGGAUCCACAUCUACGAAUUC…UUCACUGCAGACUUGACGAAGCUG
Summary of the method: as §1

biotinyl-Trp-oxazolone = experiment: self-aminoacylation, catalytic enhancement (BWO) (fold over background); higher = more active; k-Seq, kA / k0A0; sequences stand for … in GGGAAUGGAUCCACAUCUACGAAUUC…UUCACUGCAGACUUGACGAAGCUG
Summary of the method: as §1

Sequence | self-aminoacylation (biotinyl-Phe-oxazolone) | self-aminoacylation (biotinyl-Ile-oxazolone) | self-aminoacylation (biotinyl-Met-oxazolone) | self-aminoacylation (biotinyl-Val-oxazolone) | self-aminoacylation (biotinyl-Leu-oxazolone) | self-aminoacylation (biotinyl-Trp-oxazolone)
CUAGAUCAAACAAUCGGUCUG [Fam1A.1 aminoacylation ribozyme variant] | 2.24 | 0.703 | 0.578 | 0.798 | 0.708 | 1.22
CCACACUUCAGGCAAUGGGUC [Fam1B.1 aminoacylation ribozyme variant] | 0.992 | 0.733 | 0.802 | 0.722 | 0.702 | 0.952
AUUCACCUAGAUGAUCGGGUG [Fam2.2 aminoacylation ribozyme variant] | 13.7 | 2.32 | 2.77 | 2.62 | 2.71 | 3.34
AUUCCCCUGUUCAUCGAGUGA [Fam2.1 aminoacylation ribozyme variant] | 12.4 | 4.07 | 5.28 | 4.28 | 5.39 | 7.62
UAUCACCUAGGUCAUCGGGUG [Fam2.2 aminoacylation ribozyme variant] | 15.1 | 3.72 | 4.75 | 3.88 | 4.88 | 5.87
CCUACCCUGGUCAUCGAGUGA [Fam2.1 aminoacylation ribozyme variant] | 49.8 | 3.88 | 6.64 | 4.14 | 7.58 | 9.17
CUUCACAUAGGUCAUCGGGUG [Fam2.2 aminoacylation ribozyme variant] | 33 | 3.77 | 5.24 | 3.98 | 6.86 | 5.58
GUUACCCUGUUCAUCGAGUGA [Fam2.1 aminoacylation ribozyme variant] | 37.5 | 3.34 | 7 | 3.5 | 7.51 | 8.4
UUUCUCCUAGGUCAUCGGGUG [Fam2.2 aminoacylation ribozyme variant] | 32.5 | 5.35 | 7.74 | 5.4 | 9.78 | 8.02
CCACACUUCAAGUAAUCGGAC [Fam1B.1 aminoacylation ribozyme variant] | 0.783 | 0.743 | 0.826 | 0.907 | 0.696 | 1.05
AUUACCCUGGAUAUCGAGUGA [Fam2.1 aminoacylation ribozyme variant] | 67.3 | 4.43 | 10.5 | 4.88 | 11.1 | 12.9
CCACACAUCAAGCGAUCGGUC [Fam1B.1 aminoacylation ribozyme variant] | 0.766 | 0.954 | 1.09 | 1.07 | 0.969 | 1.38
AUUAUCCUGGUUAUCGAGUGA [Fam2.1 aminoacylation ribozyme variant] | 71.3 | 5.55 | 12.2 | 4.88 | 13.5 | 14.7
GAGUUUGCAAAUAGUCGCAAG [Fam3.1 aminoacylation ribozyme variant] | 1.83 | 1.22 | 0.838 | 0.746 | 1.02 | 0.87
AUUCACCUAGAUCAUCGGCUG [Fam2.2 aminoacylation ribozyme variant] | 0.62 | 1.69 | 1.56 | 1.89 | 1.81 | 1.63
AUUACCUUUGUCAUCGAGUGA [Fam2.1 aminoacylation ribozyme variant] | 20 | 3.25 | 5.22 | 3.06 | 6.05 | 6.87
AUUCAUCUAGGUGAUCGGGUG [Fam2.2 aminoacylation ribozyme variant] | 20.3 | 2.4 | 2.85 | 2.54 | 3.57 | 3.76
CUACUUCAAACUAUCUGUCUG [Fam1A.1 aminoacylation ribozyme variant] | 1.09 | 0.869 | 0.846 | 0.867 | 0.767 | 0.738
AUUACCAUGGUCAACGAGUGA [Fam2.1 aminoacylation ribozyme variant] | 32.6 | 4.28 | 7.33 | 4.12 | 7.89 | 10
AUUCACCUGGGUCAUCGAGUG [Fam2.2 aminoacylation ribozyme variant] | 3.55 | 2.4 | 3.54 | 2.59 | 4.18 | 3.74
AUGCACCUAGCUCAUCGGGUG [Fam2.2 aminoacylation ribozyme variant] | 3.64 | 1.62 | 1.57 | 2.4 | 2.11 | 2.72

— the supplement of paper PMC9233669
